Measurements: the Human Domainome abundance scans (Beltran et al. 2025)
± gives the uncertainty stated by the source.

B1: Ankyrin repeat and SAM domain-containing protein 6, residues 774 to 836; numbered along this chain, Q68DC2 (parent)
chain: DEDELTGILKKLSLEKYQPIFEEQEVDMEAFLTLTDGDLKELGIKTDGSRQQILAAISELNAG

Variants of: B1
Assay: abundance fitness (aPCA) (normalised: wild type 0, dead -1); higher = more abundant; growth selection in yeast, the domain comes from the species named
Settings: Homo sapiens

Abundance fitness of substitutions, site by site:
D38: Q -0.165 ± 0.1 | K -0.188 ± 0.11 | E -0.072 ± 0.069 | M -0.611 ± 0.099 | V -1.06 ± 0.084 | A -0.49 ± 0.051 | T -0.369 ± 0.056 | R -0.074 ± 0.038 | W -0.965 ± 0.087 | N -0.2 ± 0.081 | Y -1.11 ± 0.15 | C -0.773 ± 0.091 | S -0.232 ± 0.042 | F -1.28 ± 0.2 | I -1.12 ± 0.11 | H -0.418 ± 0.076 | L -1.16 ± 0.076 | G -0.273 ± 0.046 | P -0.645 ± 0.063
D36: I -0.642 ± 0.086 | H -0.584 ± 0.078 | K -0.449 ± 0.06 | T -0.532 ± 0.054 | C -0.487 ± 0.082 | N -0.252 ± 0.084 | L -0.702 ± 0.046 | F -1.02 ± 0.092 | G -0.405 ± 0.066 | Q -0.565 ± 0.072 | R -0.72 ± 0.05 | M -0.441 ± 0.046 | E -0.051 ± 0.069 | V -0.571 ± 0.055 | S -0.392 ± 0.044
E41: Y -0.321 ± 0.068 | W -0.498 ± 0.052 | L -0.205 ± 0.041 | H -0.045 ± 0.051 | N -0.052 ± 0.092 | R -0.049 ± 0.039 | P -0.658 ± 0.054 | F -0.376 ± 0.06 | Q 0.044 ± 0.051 | C -0.113 ± 0.061 | T -0.039 ± 0.053 | D -0.044 ± 0.073 | K -0.109 ± 0.059 | A -0.047 ± 0.043 | G -0.092 ± 0.067 | I -0.472 ± 0.089 | S -0.022 ± 0.039 | M -0.263 ± 0.049 | V -0.232 ± 0.044
T33: P -0.712 ± 0.074 | Q -0.071 ± 0.073 | S -0.023 ± 0.042 | E -0.032 ± 0.095 | N -0.053 ± 0.098 | R 0.048 ± 0.032 | M -0.048 ± 0.098 | K 0.141 ± 0.05 | H -0.012 ± 0.21 | V -0.215 ± 0.043 | G -0.057 ± 0.041 | F -0.642 ± 0.17 | A -0.037 ± 0.053 | D -0.122 ± 0.071 | I -0.507 ± 0.15 | W -0.49 ± 0.055 | Y -0.496 ± 0.13
E29: D -0.107 ± 0.05 | G -0.162 ± 0.047 | L -0.51 ± 0.046 | Q -0.097 ± 0.049 | H -0.356 ± 0.13 | P -0.105 ± 0.056 | C -0.338 ± 0.065 | N -0.32 ± 0.22 | Y -0.417 ± 0.086 | K 0.099 ± 0.039 | S -0.228 ± 0.043 | T -0.123 ± 0.046 | V -0.334 ± 0.051 | M -0.318 ± 0.075 | F -0.648 ± 0.097 | A -0.025 ± 0.046
F31: R -0.426 ± 0.047 | M -0.329 ± 0.07 | W -0.432 ± 0.066 | H -0.586 ± 0.088 | S -0.513 ± 0.056 | N -0.441 ± 0.07 | P -0.469 ± 0.07 | K -0.362 ± 0.064 | I -0.343 ± 0.058 | V -0.342 ± 0.05 | L -0.305 ± 0.063 | Y -0.563 ± 0.068 | C -0.797 ± 0.11 | A -0.37 ± 0.05 | D -0.51 ± 0.056 | G -0.443 ± 0.044 | T -0.638 ± 0.058 | E -0.384 ± 0.062
K40: W -0.263 ± 0.046 | Q -0.142 ± 0.096 | H -0.286 ± 0.074 | D -0.084 ± 0.063 | N -0.146 ± 0.1 | S -0.096 ± 0.052 | Y -0.115 ± 0.061 | V 0.044 ± 0.05 | G -0.31 ± 0.057 | P -0.67 ± 0.049 | F -0.326 ± 0.052 | T -0.138 ± 0.068 | E -0.041 ± 0.077 | L -0.036 ± 0.037 | A -0.121 ± 0.044 | C -0.215 ± 0.11
L34: C -0.459 ± 0.079 | K -0.309 ± 0.064 | Y -0.095 ± 0.12 | D -0.654 ± 0.12 | F -0.298 ± 0.14 | N -0.483 ± 0.15 | E -0.526 ± 0.071 | S -0.457 ± 0.057 | T -0.556 ± 0.073 | P -0.561 ± 0.078 | G -0.551 ± 0.052 | R -0.523 ± 0.051 | H -0.356 ± 0.086 | M 0.038 ± 0.083 | I -0.627 ± 0.2 | A -0.403 ± 0.06 | W -0.657 ± 0.039 | V -0.345 ± 0.065
L32: Y -0.334 ± 0.073 | A -0.097 ± 0.055 | T -0.157 ± 0.06 | R 0.039 ± 0.043 | W -0.536 ± 0.058 | K 0.264 ± 0.059 | G -0.251 ± 0.048 | V -0.103 ± 0.049 | D -0.408 ± 0.068 | N -0.295 ± 0.071 | P -0.199 ± 0.056 | E -0.271 ± 0.071 | I -0.181 ± 0.042 | M -0.083 ± 0.065
G37: Y -0.138 ± 0.086 | P -0.035 ± 0.051 | K 0.033 ± 0.054 | A 0.004 ± 0.05 | N -0.095 ± 0.099 | H -0.087 ± 0.09 | D 0.117 ± 0.1 | E -0.001 ± 0.072 | V -0.028 ± 0.038 | L -0.049 ± 0.039 | T -0.064 ± 0.068 | R -0.111 ± 0.057 | C -0.269 ± 0.087 | S -0.058 ± 0.049 | W -0.331 ± 0.068
